The target of assay [1] is T1, VEGFR2-Fc (UniProt P35968 20-764, limits assumed).
T1 construct: Neither the source nor the limits of the VEGFR2-Fc construct are stated; also called VEGFR2 receptor; not shown: Fc part
Put plainly: soluble protein binding to VEGFR2-Fc, Octet platform (lower table; taken as the soluble-form table from legend paragraph 18 and paragraph 153). An excerpt: The Octet® platform was used to measure the soluble affinity of the variants to VEGFR2-Fc and their respective target proteins. As with the results on the yeast surface, the variants' affinities to VEGFR2-Fc were similar to each other and to scVEGFmut.

For assay [2], the target named is T1, VEGFR2-Fc. As to the kind of experiment: yeast surface display: scVEGFmut displayed on the yeast cell surface, titrated with soluble VEGFR2-Fc (upper table; taken as the yeast-display table from legend paragraph 18).
Assay [3] addresses T1, VEGFR2-Fc. Put plainly: yeast surface display, titration with soluble VEGFR2-Fc, % maximum VEGFR2-Fc bound.
Assay [4] deals with T2, prostate specific membrane antigen (PSMA) (UniProt Q04609 44-750, limits assumed).
T2 construct: also called folate hydrolase I
Put plainly: yeast surface display: VEGFR2/PSMA displayed on the yeast cell surface, titrated with soluble PSMA (upper table; taken as the yeast-display table from legend paragraph 18).

The target in assay [5] is T2, prostate specific membrane antigen …. As to the kind of experiment: yeast surface display, titration with soluble PSMA, PSMA bound in arbitrary fluorescence.
Assay [6] has as its target T1, VEGFR2-Fc. As to the kind of experiment: yeast surface display: VEGFR2/PSMA displayed on the yeast cell surface, titrated with soluble VEGFR2-Fc (upper table; taken as the yeast-display table from legend paragraph 18).

T1 sequence (P35968 20-764 limits assumed): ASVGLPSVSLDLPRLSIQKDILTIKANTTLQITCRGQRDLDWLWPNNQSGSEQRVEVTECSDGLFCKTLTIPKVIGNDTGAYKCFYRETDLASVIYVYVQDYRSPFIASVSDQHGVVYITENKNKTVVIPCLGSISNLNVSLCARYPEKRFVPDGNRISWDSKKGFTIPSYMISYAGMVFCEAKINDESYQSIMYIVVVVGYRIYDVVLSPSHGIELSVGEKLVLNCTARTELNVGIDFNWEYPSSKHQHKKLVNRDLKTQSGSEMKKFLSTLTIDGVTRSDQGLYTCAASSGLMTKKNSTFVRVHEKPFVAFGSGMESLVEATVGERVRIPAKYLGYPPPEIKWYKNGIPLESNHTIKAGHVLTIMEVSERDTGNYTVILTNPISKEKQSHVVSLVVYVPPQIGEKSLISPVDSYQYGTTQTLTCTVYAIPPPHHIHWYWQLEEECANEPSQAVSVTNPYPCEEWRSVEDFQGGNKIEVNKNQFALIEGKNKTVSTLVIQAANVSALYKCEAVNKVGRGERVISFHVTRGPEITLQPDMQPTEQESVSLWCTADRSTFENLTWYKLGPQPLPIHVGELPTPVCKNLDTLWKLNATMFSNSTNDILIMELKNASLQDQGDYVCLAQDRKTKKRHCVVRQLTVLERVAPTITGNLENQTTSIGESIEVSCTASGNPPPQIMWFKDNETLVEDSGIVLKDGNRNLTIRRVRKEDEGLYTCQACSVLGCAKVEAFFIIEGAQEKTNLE
T2 sequence (Q04609 44-750 limits assumed): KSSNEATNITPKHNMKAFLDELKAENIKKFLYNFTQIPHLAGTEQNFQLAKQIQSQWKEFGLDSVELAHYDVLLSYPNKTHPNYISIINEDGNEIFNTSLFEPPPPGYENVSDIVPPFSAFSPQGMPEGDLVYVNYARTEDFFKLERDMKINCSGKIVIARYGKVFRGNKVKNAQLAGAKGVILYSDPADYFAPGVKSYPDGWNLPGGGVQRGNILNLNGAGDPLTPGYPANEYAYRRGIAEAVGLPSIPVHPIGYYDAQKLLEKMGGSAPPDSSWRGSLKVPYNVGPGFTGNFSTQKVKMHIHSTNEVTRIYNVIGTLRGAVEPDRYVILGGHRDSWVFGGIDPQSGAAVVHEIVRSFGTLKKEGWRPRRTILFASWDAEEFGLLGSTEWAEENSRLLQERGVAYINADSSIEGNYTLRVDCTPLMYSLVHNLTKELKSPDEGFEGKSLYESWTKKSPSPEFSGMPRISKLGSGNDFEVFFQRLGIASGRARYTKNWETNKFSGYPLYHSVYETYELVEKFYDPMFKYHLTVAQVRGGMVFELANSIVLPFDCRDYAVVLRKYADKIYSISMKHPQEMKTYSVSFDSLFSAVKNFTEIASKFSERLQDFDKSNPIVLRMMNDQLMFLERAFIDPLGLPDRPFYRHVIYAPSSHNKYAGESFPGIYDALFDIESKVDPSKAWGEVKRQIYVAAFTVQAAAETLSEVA

B1: scVEGFmut (ligand)
chain: APMAEGGGQNHHEVVKAMDVYQRSYCHPIETLVDIFQEYPDEIEYIFKPSCVPLMRCGGCCNDAGLECVPTEESNITMQIMRIKPHQGQHIGEMSFLQHNKCECRPKKDRARQEKCDKPRRGGGGSGGGGSGGGGSGGGGSAPMAEGGGQNHHEVVKFMDVYQRSYCHPIETLVDIFQEYPDEIEYAFKPSCVPLMRCGGCCNDEGLECVPTEESNITMQIMRAKPHQGQHIGEMSFLQHNKCECRPKKDRARQEKCDKPRR
notes: also called single-chain antagonist mutant VEGF; scaffold protein
Broadly, the Kd is the free concentration of one partner at which half of the binding sites on the other are occupied at equilibrium, for simple one-to-one binding. Read a low Kd as a tighter complex. As a reminder, the EC50 (read off the curve) is the concentration that produces a half-maximal response. A low value points to higher potency in that assay. As for B1, the Kd with VEGFR2-Fc [1] stood at 13 nM; with VEGFR2-Fc [2], 6 nM. In the assay with VEGFR2-Fc [3], the “EC50 (read off the curve)” value was around 6 nM.

B2: VEGFR2/PSMA protein (designed binder)
chain: EVVKAMDVYQRSYCHPIETLVDIFQEYPDEIEYIFKPSCVPLMRCGGCCNDAGLECVPTEESNITMQIMRIKPHQGQHIGEMSFLQHNKCECRPKKDGGGGSGGGGSGGGGSGGGGSEVVKFMDVYQRSYCHPIETLVDIFQEYPSIASWNPWMAFKPSCVPLMRCGGCCNDEGLECVPTEESNITMQIMRNRLFRYLPVRHIGEMSFLQHNKCECRPKKD
In the case of B2, the Kd was 13 nM with VEGFR2-Fc [1], 58 nM in assay [4] and 4.6 nM with VEGFR2-Fc [6]. Also, the “EC50 (read off the curve)” value is around 4 nM with VEGFR2-Fc [3] and around 40 nM in assay [5].

Values taken from patent US20170204150A1 (Stanford University, published 2017).
